The source of these data is publication PMC2748320.

The test has as its target C-terminal mycHis-tagged Rp1L1 (1-361), expressed in COS7 cells (mouse) (UniProt Q8CGM2). The test is described as follows: co-IP.
Chain of UniProt Q8CGM2 (Q8CGM2 1-361): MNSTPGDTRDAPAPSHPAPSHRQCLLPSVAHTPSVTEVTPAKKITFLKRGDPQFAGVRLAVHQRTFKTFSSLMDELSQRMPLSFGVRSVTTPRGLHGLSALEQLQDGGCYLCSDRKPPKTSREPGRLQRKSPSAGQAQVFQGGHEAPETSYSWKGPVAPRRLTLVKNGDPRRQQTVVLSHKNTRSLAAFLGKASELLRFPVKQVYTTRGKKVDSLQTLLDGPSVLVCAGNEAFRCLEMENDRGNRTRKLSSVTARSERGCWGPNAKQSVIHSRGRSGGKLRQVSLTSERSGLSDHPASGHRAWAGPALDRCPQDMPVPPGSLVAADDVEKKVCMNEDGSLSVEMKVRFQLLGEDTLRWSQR

Regarding “N-terminal FLAG-tagged full-length Rp1, P56716 1-2095”, the percent of FLAG-Rp1 co-immunoprecipitated worked out at 12%.
